# Assay results published in the supplement of paper PMC10266784.
# B1: library; numbered along this chain (parent)
# chain: MAAAAAAAAEQQSSNGPVKKSMREKAVERRSVNKEHNSNFKAGYIPIDEDRLHKTGLRGRKGNLAICVIILLFILAVINLIITLVIWAVIRIGPNGCDSMEFHESGLLRFKQVSDMGVIHPLYKSTVGGRRNENLVITGNNQPIVFQQGTTKLSVENNKTSITSDIGMQFFDPRTQNILFSTDYETHEFHLPSGVKSLNVQKASTERITSNATSDLNIKVDGRAIVRGNEGVFIMGKTIEFHMGGNMELKAENSIILNGSVMVSTTRLPSSSSGDQLGSGDWVRYKLCMCADGTLFKVQVTSQNMGCQISDNPCGNTH
# Variants of: B1
# Assay: SGCB cell-surface expression functional score (HA stain, bin4 vs bin1, normalised to synonymous) (log10 ratio); higher = more cell-surface SGCB (functional)
# Summary of the method: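 Codon-saturation libraries of HA-tagged, YFP-fused human beta-sarcoglycan were lentivirally transduced at MOI <0.1 into HEK293 cells stably expressing alpha-, gamma- and delta-sarcoglycan. YFP-positive cells were sorted after 72 hours, grown 5–7 days, stained on ice with Alexa Fluor 647 anti-HA, fixed, sorted into four 5% intensity bins and amplicon-sequenced. The functional score is the log ratio of highest-bin to lowest-bin variant frequency, taken as the median over codons and duplicate transductions. Synonymous variants were scaled per section to mean 0, SD 0.5.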
row,Variant,SGCB cell-surface expression functional score (log10)
1,MAAAAAAAAEQQSSNGPVKKSMREKAVERRSVNKEHNSNFKAGYIPIDEDRLHKTGLRGRKGNLAICVIILLFILAVINLIITLVIWAVIRIGPNGCDSMEFHESGLLRFKQVSDMGVIHPLYKSTVGGRRNENLVITGNNQPIVFQQGTTKLSVENNKTSITSDIGMQFFDPRTQNILFSTDYETHEFHLPSGVKSLNVQKASTERITSNATSDLNIKVDGRAIVRGNEGVFIMGKTIEFHMGGNMELKAENSIILNGSVMVSTTRLFSSSSGDQLGSGDWVRYKLCMCADGTLFKVQVTSQNMGCQISDNPCGNTH [P269F],0.8
2,MAAAAAAAAEQQSSNGPVKKSMREKAVERRSVNKEHNSNFKAGYIPIDEDRLHKTGLRGRKGNLAICVIILLFILAVINLIITLVIWAVIRIGPNGCDSMEFHESGLLRFKQVSDMGVIHPLYKSTVGGRRNENLVITGNNQPIVFQQGTTKLSVENNKTSITSDIGMQFFDPRTQNILFSTDYETHEFHLPSGVKSLNVQKASTERITSNATSDLNIKVDGRAIVRGNEGVFIMGKTIEFHMGGNMELKAENSIILNGSVMVSTTRLDSSSSGDQLGSGDWVRYKLCMCADGTLFKVQVTSQNMGCQISDNPCGNTH [P269D],-0.09
3,MAAAAAAAAEQQSSNGPVKKSMREKAVERRSVNKEHNSNFKAGYIPIDEDRLHKTGLRGRKGNLAICVIILLFILAVINLIITLVIWAVIRIGPNGCDSMEFHESGLLRFKQVSDMGVIHPLYKSTVGGRRNENLVITGNNQPIVFQQGTTKLSVENNKTSITSDIGMQFFDPRTQNILFSTDYETHEFHLPSGVKSLNVQKASTERITSNATSDLNIKVDGRAIVRGNEGVFIMGKTIEFHMGGNMELKAENSIILNGSVMVSTTRLKSSSSGDQLGSGDWVRYKLCMCADGTLFKVQVTSQNMGCQISDNPCGNTH [P269K],0.01
4,MAAAAAAAAEQQSSNGPVKKSMREKAVERRSVNKEHNSNFKAGYIPIDEDRLHKTGLRGRKGNLAICVIILLFILAVINLIITLVIWAVIRIGPNGCDSMEFHESGLLRFKQVSDMGVIHPLYKSTVGGRRNENLVITGNNQPIVFQQGTTKLSVENNKTSITSDIGMQFFDPRTQNILFSTDYETHEFHLPSGVKSLNVQKASTERITSNATSDLNIKVDGRAIVRGNEGVFIMGKTIEFHMGGNMELKAENSIILNGSVMVSTTRLLSSSSGDQLGSGDWVRYKLCMCADGTLFKVQVTSQNMGCQISDNPCGNTH [P269L],0.23
5,MAAAAAAAAEQQSSNGPVKKSMREKAVERRSVNKEHNSNFKAGYIPIDEDRLHKTGLRGRKGNLAICVIILLFILAVINLIITLVIWAVIRIGPNGCDSMEFHESGLLRFKQVSDMGVIHPLYKSTVGGRRNENLVITGNNQPIVFQQGTTKLSVENNKTSITSDIGMQFFDPRTQNILFSTDYETHEFHLPSGVKSLNVQKASTERITSNATSDLNIKVDGRAIVRGNEGVFIMGKTIEFHMGGNMELKAENSIILNGSVMVSTTRLNSSSSGDQLGSGDWVRYKLCMCADGTLFKVQVTSQNMGCQISDNPCGNTH [P269N],0.54
6,MAAAAAAAAEQQSSNGPVKKSMREKAVERRSVNKEHNSNFKAGYIPIDEDRLHKTGLRGRKGNLAICVIILLFILAVINLIITLVIWAVIRIGPNGCDSMEFHESGLLRFKQVSDMGVIHPLYKSTVGGRRNENLVITGNNQPIVFQQGTTKLSVENNKTSITSDIGMQFFDPRTQNILFSTDYETHEFHLPSGVKSLNVQKASTERITSNATSDLNIKVDGRAIVRGNEGVFIMGKTIEFHMGGNMELKAENSIILNGSVMVSTTRLSSSSSGDQLGSGDWVRYKLCMCADGTLFKVQVTSQNMGCQISDNPCGNTH [P269S],0.18
7,MAAAAAAAAEQQSSNGPVKKSMREKAVERRSVNKEHNSNFKAGYIPIDEDRLHKTGLRGRKGNLAICVIILLFILAVINLIITLVIWAVIRIGPNGCDSMEFHESGLLRFKQVSDMGVIHPLYKSTVGGRRNENLVITGNNQPIVFQQGTTKLSVENNKTSITSDIGMQFFDPRTQNILFSTDYETHEFHLPSGVKSLNVQKASTERITSNATSDLNIKVDGRAIVRGNEGVFIMGKTIEFHMGGNMELKAENSIILNGSVMVSTTRLHSSSSGDQLGSGDWVRYKLCMCADGTLFKVQVTSQNMGCQISDNPCGNTH [P269H],0.32
8,MAAAAAAAAEQQSSNGPVKKSMREKAVERRSVNKEHNSNFKAGYIPIDEDRLHKTGLRGRKGNLAICVIILLFILAVINLIITLVIWAVIRIGPNGCDSMEFHESGLLRFKQVSDMGVIHPLYKSTVGGRRNENLVITGNNQPIVFQQGTTKLSVENNKTSITSDIGMQFFDPRTQNILFSTDYETHEFHLPSGVKSLNVQKASTERITSNATSDLNIKVDGRAIVRGNEGVFIMGKTIEFHMGGNMELKAENSIILNGSVMVSTTRLQSSSSGDQLGSGDWVRYKLCMCADGTLFKVQVTSQNMGCQISDNPCGNTH [P269Q],0.32
9,MAAAAAAAAEQQSSNGPVKKSMREKAVERRSVNKEHNSNFKAGYIPIDEDRLHKTGLRGRKGNLAICVIILLFILAVINLIITLVIWAVIRIGPNGCDSMEFHESGLLRFKQVSDMGVIHPLYKSTVGGRRNENLVITGNNQPIVFQQGTTKLSVENNKTSITSDIGMQFFDPRTQNILFSTDYETHEFHLPSGVKSLNVQKASTERITSNATSDLNIKVDGRAIVRGNEGVFIMGKTIEFHMGGNMELKAENSIILNGSVMVSTTRLCSSSSGDQLGSGDWVRYKLCMCADGTLFKVQVTSQNMGCQISDNPCGNTH [P269C],0.49
10,MAAAAAAAAEQQSSNGPVKKSMREKAVERRSVNKEHNSNFKAGYIPIDEDRLHKTGLRGRKGNLAICVIILLFILAVINLIITLVIWAVIRIGPNGCDSMEFHESGLLRFKQVSDMGVIHPLYKSTVGGRRNENLVITGNNQPIVFQQGTTKLSVENNKTSITSDIGMQFFDPRTQNILFSTDYETHEFHLPSGVKSLNVQKASTERITSNATSDLNIKVDGRAIVRGNEGVFIMGKTIEFHMGGNMELKAENSIILNGSVMVSTTRLGSSSSGDQLGSGDWVRYKLCMCADGTLFKVQVTSQNMGCQISDNPCGNTH [P269G],0.44
